Results published in article PMC13544220, “Glycemic and bodyweight effects of GIPR coding variation reflect differences in surface expression and intrinsic functional impairment” (Science Advances, 2026).

Experiments:
Format in all cases: cell-based, human
[1] = system: wild-type and variant SNAP-GIPR; assay: Surface SNAP-GIPR expression (SNAP-tag labelling) in AD293 cells; conditions: for AD293 Surface: Fig S3E, mean; for Surface SNAP-GIPR expression: sheet Fig 1C;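 as to all read-outs here: scaled to the experimental average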
Experimental: (§1) Twenty-four hours before the experiment, AD293 or INS-1 cells were reverse transfected with GIPR variant or wild-type plasmids using Lipofectamine 2000 in 96-well, clear-bottom, black microplates precoated with poly-D-lysine. All variants were tested in parallel on each occasion to control for transfection efficiency differences between experiments. Cells were then labeled using the cell-impermeant probe SNAP-Surface Alexa Fluor 647 (500 nM, New England Biolabs, USA) for 10 min at room temperature to label only surface GIPR. […] Several fields of view (FOVs) were acquired within each well using a 20X, 0.75–numerical aperture (NA) air objective. Surface GIPR fluorescence was quantified after flat-field correction using BaSiC ([72]) and segmenting using Phantast ([73]), which generates a mask based on the phase contrast images to demarcate cell versus noncell. Wide-field imaging of the surface-specific labeling achieved by SNAP-Surface probes means that surface expression can be established from whole-cell fluorescence, after subtracting nonspecific fluorescence from a separate well containing nontransfected cells processed in parallel from the same experiment. Data were normalized by dividing by the average specific signal across each experiment, or by the wild-type value, as indicated in the figure legends.

[2] = system: wild-type and variant SNAP-GIPR; assay: Surface SNAP-GIPR expression (SNAP-tag labelling) in INS-1 cells; conditions: Fig 4G; Mean
Experimental: as §1

[3] = system: wild-type and variant SNAP-GIPR; assay: Single-concentration GIP cAMP response by HTRF in AD293 cells; conditions: Fig S3F, HTRF, mean;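 also: ratio to experiment-wide average response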
Experimental: (§2) All variants were tested in parallel on each occasion to control for transfection efficiency differences between experiments.

[4] = system: wild-type and variant SNAP-GIPR; assay: Single-concentration GIP cAMP response by HTRF in INS-1 cells; conditions: Fig S3E, mean
Experimental: as §2

[5] = system: wild-type and variant SNAP-GIPR; assay: cADDis cAMP imaging in AD293 cells, ensemble, expression-matched and per decile; conditions: Fig S3F, cADDis, mean
Experimental: AD293 cells were reverse transfected with the GIPR variant or wild-type plasmids using Lipofectamine 2000 and cotransduced with the cADDis Green Up BacMam (10 μl per well, Montana Molecular, USA), in 96-well, poly-D-lysine–coated microplates. All variants were tested in parallel on each occasion to control for transfection efficiency differences between experiments. After 24 hours, cells were labeled using 500 nM SNAP-Surface Alexa Fluor 647 for 10 min at room temperature. Cells were washed three times and then imaged in KRBH buffer containing 6 mM glucose and 0.1% BSA. Imaging was performed at 37°C by wide-field microscopy using the same microscope as in the “Assessment of surface GIPR expression by SNAP-tag labeling in cell lines” section, with 9 FOVs for both cADDis and SNAP-Surface fluorescence acquired from each well using a 10X, 0.45 NA air objective. […] Flat-field correction was performed using BaSiC ([72]), drift correction was performed using SIFT, and a maximum intensity projection of the cADDis channel was used to segment individual cells. cAMP responses were determined by quantifying the cADDis fluorescence intensity for each cell at each time point. Nonviable cells or noncell objects were excluded according to criteria for allowable cell IBMX/FSK responses. […] The cADDis mask was then used to quantify the SNAP-Surface signal from each cell. Wild-type SNAP-Surface readings were split into deciles, and these deciles were subsequently used to categorize variant-transfected cells to match against the wild type. After trimming the top and bottom deciles, the mean was taken of each decile mean for surface expression level or cAMP response, which achieved matched expression levels by effectively applying an inverse weighting to counteract differences in cell number in each decile for different variants. Ensemble expression levels or cAMP responses were calculated without regard to deciles. Variant cADDis responses were also analyzed within their own surface expression deciles.

[6] = system: wild-type and variant SNAP-GIPR; assay: Constitutive and agonist-mediated internalization, reversible SNAP-tag labelling, AD293 cells; parameters: key to Internalisation, Vehicle / Internalisation, +GIP / Internalisation, GIP-only: % internalization: residual fluorescence after Mesna vs pre-Mesna; Surface expression: unit not given here; conditions: Mean
Experimental: (§3) Twenty-four hours before the experiment, AD293 or INS-1 cells were reverse transfected with GIPR variant or wild-type plasmids using Lipofectamine 2000 in 96-well, clear-bottom, black microplates precoated with poly-D-lysine. All variants were tested in parallel on each occasion to control for transfection efficiency differences between experiments. […] Media were then removed, cells washed with PBS and then placed in TNE buffer (pH 8.6) for imaging. […] After 10 min, the well was reimaged again to detect remaining fluorescence from internalized GIPR. Images were analyzed as in the “Assessment of surface GIPR expression by SNAP-tag labeling in cell lines” section, with the residual specific fluorescence after Mesna treatment expressed relative to the pre-Mesna value to establish percentage internalization.

[7] = system: wild-type and variant SNAP-GIPR; assay: Constitutive and agonist-mediated internalization, reversible SNAP-tag labelling, INS-1 cells; parameters: key to Internalisation, GIP-only / Internalisation, Vehicle / Internalisation, +GIP: % internalization: residual fluorescence after Mesna vs pre-Mesna; conditions: Mean
Experimental: as §3

B1: T116R (protein, UniProt P48546 22-466, looked up, variant T116R)
Gastric inhibitory …: RAETGSKGQTAGELYQRWERYRRECQETLAAAEPPSGLACNGSFDMYVCWDYAAPNATARASCPWYLPWHHHVAAGFVLRQCGSDGQWGLWRDHRQCENPEKNEAFLDQRLILERLQVMYTVGYSLSLATLLLALLILSLFRRLHCTRNYIHINLFTSFMLRAAAILSRDRLLPRPGPYLGDQALALWNQALAACRTAQIVTQYCVGANYTWLLVEGVYLHSLLVLVGGSEEGHFRYYLLLGWGAPALFVIPWVIVRYLYENTQCWERNEVKAIWWIIRTPILMTILINFLIFIRILGILLSKLRTRQMRCRDYRLRLARSTLTLVPLLGVHEVVFAPVTEEQARGALRFAKLGFEIFLSSFQGFLVSVLYCFINKEVQSEIRRGWHHCRLRRSLGEEQRQLPERAFRALPSGSGPGEVPTSRGLSSGTLPGPGNEASRELESYC
Question: How did the “AD293 Surface” value ([1]; column repeated, paired with cAMP 100 nM) turn out when B1 was run?
Answer: Its value is 1.324.

Question: And the “AD293 Surface” value ([1]; paired with cAMP 100 pM)?
Answer: The value was 1.324.

Question: What about the “Surface SNAP-GIPR expression” value ([1]; replicate 1) of the same molecule?
Answer: Its value is 1.245.

Question: What about the “Surface SNAP-GIPR expression” value ([1]; replicate 2) of the same molecule?
Answer: Its value is 1.023.

Question: And the “Surface SNAP-GIPR expression” value ([1]; replicate 3)?
Answer: The value was 0.6735.

Question: What about the “Surface SNAP-GIPR expression” value ([1]; replicate 4) of the same molecule?
Answer: Its value is 1.28.

Question: What about the “Surface SNAP-GIPR expression” value ([1]; replicate 5) of the same molecule?
Answer: The value was 0.9777.

Question: What about the “Surface SNAP-GIPR expression” value ([1]; replicate 6) of the same molecule?
Answer: Its value is 1.324.

Question: What about the “Surface SNAP-GIPR expression” value ([1]; replicate 7) of the same molecule?
Answer: The value was 1.095.

Question: And the “Surface SNAP-GIPR expression” value ([1]; replicate 8)?
Answer: Its value is 1.165.

Question: And the “Surface SNAP-GIPR expression” value ([1]; replicate 9)?
Answer: Its value is 1.067.

Question: What about the “Surface SNAP-GIPR expression” value ([1]; replicate 10) of the same molecule?
Answer: The value was 1.216.

Question: And the “Surface SNAP-GIPR expression” value ([1]; replicate 11)?
Answer: Its value is 0.8978.

Question: And the “Surface SNAP-GIPR expression” value ([1]; replicate 12)?
Answer: Its value is 1.007.

Question: What about the “Surface SNAP-GIPR expression” value ([1]; replicate 13) of the same molecule?
Answer: Its value is 1.293.

Question: What about the “Surface SNAP-GIPR expression” value ([1]; replicate 14) of the same molecule?
Answer: The value was 1.058.

Question: What about the “Surface SNAP-GIPR expression” value ([1]; replicate 15) of the same molecule?
Answer: Its value is 1.321.

Question: And the “Surface SNAP-GIPR expression” value ([1]; replicate 16)?
Answer: The value was 1.079.

Question: What about the “Surface SNAP-GIPR expression” value ([1]; replicate 17) of the same molecule?
Answer: The value was 1.526.

Question: What about the “Surface SNAP-GIPR expression” value ([1]; replicate 18) of the same molecule?
Answer: The value was 1.463.

Question: What about the “Surface SNAP-GIPR expression” value ([1]; replicate 19) of the same molecule?
Answer: The value was 1.041.

Question: And the “Surface SNAP-GIPR expression” value ([1]; replicate 20)?
Answer: Its value is 1.229.

Question: And the “Surface SNAP-GIPR expression” value ([1]; replicate 21)?
Answer: Its value is 1.037.

Question: What about the “Surface SNAP-GIPR expression” value ([1]; replicate 22) of the same molecule?
Answer: The value was 1.307.

Question: What about the “Surface SNAP-GIPR expression” value ([1]; replicate 23) of the same molecule?
Answer: The value was 1.273.

Question: And the “Surface SNAP-GIPR expression” value ([1]; replicate 24)?
Answer: The value was 1.448.

Question: And the “Surface SNAP-GIPR expression” value ([1]; replicate 25)?
Answer: Its value is 1.438.

Question: What about the “Surface SNAP-GIPR expression” value ([1]; replicate 26) of the same molecule?
Answer: The value was 1.564.

Question: What about the “Surface SNAP-GIPR expression” value ([1]; replicate 27) of the same molecule?
Answer: Its value is 1.467.

Question: What about the “Surface SNAP-GIPR expression” value ([1]; replicate 28) of the same molecule?
Answer: Its value is 1.252.

Question: And the “Surface SNAP-GIPR expression” value ([1]; replicate 29)?
Answer: The value was 1.566.

Question: And the “Surface SNAP-GIPR expression” value ([1]; replicate 30)?
Answer: Its value is 1.334.

Question: What about the “Surface SNAP-GIPR expression” value ([1]; replicate 31) of the same molecule?
Answer: Its value is 1.686.

Question: And the “Surface SNAP-GIPR expression” value ([1]; replicate 32)?
Answer: The value was 1.692.

Question: And the “Surface SNAP-GIPR expression” value ([1]; replicate 33)?
Answer: Its value is 1.307.

Question: What about the “Surface SNAP-GIPR expression” value ([1]; replicate 34) of the same molecule?
Answer: Its value is 1.109.

Question: And the “Surface SNAP-GIPR expression” value ([1]; replicate 35)?
Answer: The value was 1.705.

Question: What about the “Surface SNAP-GIPR expression” value ([1]; replicate 36) of the same molecule?
Answer: The value was 1.374.

Question: What about the “Surface SNAP-GIPR expression” value ([1]; replicate 37) of the same molecule?
Answer: Its value is 1.911.

Question: What about the “Surface SNAP-GIPR expression” value ([1]; replicate 38) of the same molecule?
Answer: Its value is 1.787.

Question: And the “Surface SNAP-GIPR expression” value ([1]; replicate 39)?
Answer: The value was 1.944.

Question: And the “Surface SNAP-GIPR expression” value ([1]; replicate 40)?
Answer: Its value is 1.676.

Question: What about the “Surface SNAP-GIPR expression” value ([1]; replicate 41) of the same molecule?
Answer: The value was 1.421.

Question: What about the Surface expression [2] of the same molecule?
Answer: The Surface expression was 1.428.

Question: And the “AD293 100 pM HTRF” value ([3]; AD293, 100 pM)?
Answer: Its value is 0.9665.

Question: What about the “AD293 100 nM HTRF” value ([3]; AD293, 100 nM) of the same molecule?
Answer: Its value is 1.485.

Question: What about the “INS-1 cAMP (100 nM)” value [4] of the same molecule?
Answer: The value was 1.507.

Question: What about the “AD293 100 pM cADDis” value ([5]; AD293, 100 pM) of the same molecule?
Answer: Its value is 33.6456.

Question: What about the “AD293 100 nM cADDis” value ([5]; AD293, 100 nM) of the same molecule?
Answer: The value was 38.18.

Question: What about the “+GIP internalisation (100 nM)” value ([6]; Fig 4E, GIP 100 nM) of the same molecule?
Answer: The value was 0.9677.

Question: And the “GIP-specific internalisation (100 nM)” value ([6]; Fig 4E, GIP 100 nM)?
Answer: Its value is 0.2939.

Question: And the “Constitutive internalisation (100 nM)” value ([6]; Fig 4E)?
Answer: Its value is 0.6738.

Question: And the Surface expression ([6]; Fig 4E)?
Answer: Its Surface expression is 1.687.

Question: What about the “Internalisation, +GIP” value ([6]; Fig S4C, AD293) of the same molecule?
Answer: Its value is 57.3525.

Question: And the “Internalisation, GIP-only” value ([6]; Fig S4C, AD293)?
Answer: Its value is 17.4551.

Question: And the “Internalisation, Vehicle” value ([6]; Fig S4C, AD293)?
Answer: The value was 39.8973.

Question: And the “+GIP internalisation (100 nM)” value ([7]; Fig 4G, GIP 100 nM)?
Answer: Its value is 0.7228.

Question: What about the “GIP-specific internalisation (100 nM)” value ([7]; Fig 4G, GIP 100 nM) of the same molecule?
Answer: Its value is 0.1652.

Question: And the “Constitutive internalisation (100 nM)” value ([7]; Fig 4G)?
Answer: The value was 0.5577.

Question: And the “Internalisation, +GIP” value ([7]; Fig S4C, INS-1)?
Answer: The value was 48.6183.

Question: What about the “Internalisation, GIP-only” value ([7]; Fig S4C, INS-1) of the same molecule?
Answer: Its value is 11.125.

Question: What about the “Internalisation, Vehicle” value ([7]; Fig S4C, INS-1) of the same molecule?
Answer: Its value is 37.4933.
